Reference: publication PMC3164844 (Proteins, 2011)
Changes are numbered by the printed parent chain. Names may count otherwise.

B1: GDPMK, Nudix GDP-mannose hydrolase from E. coli (product of the gene yffH), wild type (enzyme, UniProt P37128 1-191, looked up)
chain: MTQQITLIKDKILSDNYFTLHNITYDLTRKDGEVIRHKREVYDRGNGATILLYNTKKKTVVLIRQFRVATWVNGNESGQLIESCAGLLDNDEPEVCIRKEAIEETGYEVGEVRKLFELYMSPGGVTELIHFFIAEYSDNQRANAGGGVEDEDIEVLELPFSQALEMIKTGEIRDGKTVLLLNYLQTSHLMD
B2: GDPMK (Escherichia coli K-12; K176A) (protein)
chain: B1 chain with K176A
B3: GDPMK (Escherichia coli K-12; R44S) (protein)
chain: B1 chain with R44S
B4: GDPMK E100A mutant (enzyme, E. coli, UniProt P37128 1-191, looked up)
chain: B1 chain with E100A
B5: GDPMK (Escherichia coli K-12; E149A) (protein)
chain: B1 chain with E149A
B6: GDPMK (Escherichia coli K-12; E151A) (protein)
chain: B1 chain with E151A

What was measured:
GDPMK = GDPMK (Escherichia coli, UniProt P37128, E100A); test: X-ray crystal structure, […] Å; assay type: binding; conditions: Mg2+; active site; co-crystallised at pH 8.5
phosphate release = substrate: Nc1nc2c(ncn2[C@@H]2O[C@H](COP(=O)(O)OP(=O)(O)O[C@H]3O[C@H](CO)[C@@H](O)[C@H](O)[C@@H]3O)[C@@H](O)[C@H]2O)c(=O)[nH]1; test: phosphate release; assay type: biochemical, Escherichia coli; conditions: Mg2+, pH 8.5, 37 °C
SEC = molecular target: the molecule itself; test: SEC
crystal structure = molecular target: the molecule itself; test: crystal structure

Sequence of GDPMK (P37128 whole entry E100A): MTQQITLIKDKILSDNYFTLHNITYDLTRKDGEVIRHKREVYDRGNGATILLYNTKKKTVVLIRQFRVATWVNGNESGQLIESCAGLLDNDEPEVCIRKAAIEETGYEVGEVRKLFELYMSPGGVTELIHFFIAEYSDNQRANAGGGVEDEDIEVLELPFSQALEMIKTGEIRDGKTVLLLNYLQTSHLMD

Row | Molecule | Km (phosphate release) | kcat (phosphate release) | further results
1 | Nc1nc2c(ncn2[C@@H]2O[C@H](COP(=O)(O)OP(=O)(O)O[C@H]3O[C@H](CO)[C@@H](O)[C@H](O)[C@@H]3O)[C@@H](O)[C@H]2O)c(=O)[nH]1 [GDP-mannose] | – | – | X-ray crystal structure, 2.45 Å (GDPMK): The structure of the complex of the GDPMK E100A mutant with GDP-mannose and magnesium
2 | B1 | 659 ± 65 µM | 90.2 ± 6.7 s⁻¹ | stoichiometry N (SEC): 2
3 | B2 | – | 0.11 ± 0.04 s⁻¹ | –
4 | B3 | – | 1.69 ± 0.12 s⁻¹ | –
5 | B4 | – | – | binding result (crystal structure): binds
6 | B5 | 555 ± 85 µM | 80.6 ± 6.3 s⁻¹ | –
7 | B6 | 594 ± 140 µM | 21.3 ± 4.6 s⁻¹ | –
